Test system: serum fucosylated PSA
Experiment: Sandwich ELISA, anti-PSA antibody and biotin-labeled lectin
Type: binding, human
Method: The anti-PSA antibody from which sugar chains had been removed was diluted to 5 μg/mL with PBS. 25 μL of this diluted solution was added to each well of an ELISA plate and allowed to stand at 37° C. for 12 hours, and then the additive solution was discarded.
150 μL of PBS containing 0.05% Tween 20 (product name: polyoxyethylene sorbitan monolaurate, from Nacalai Tesque, Inc.) was added to each well, and then the additive solution was discarded. This manipulation was repeated three times in total.
25 μL of 1% BSA/PBS was added to each well and allowed to stand at 37° C. for 1 hour, and then the additive solution was discarded.
150 μL of PBS containing 0.05% Tween 20 was added to each well, and then the additive solution was discarded. This manipulation was repeated three times in total.
To graph a calibration curve, 25 μL of the fucosylated PSA reference standard diluted with 1% BSA/PBS to a concentration of 0 to 200 ng/mL was added to each well and allowed to stand at room temperature for 1 hour, and then the additive solution was discarded. In addition, to detect the fucosylated PSA in the serum of the subject by the lectin, 25 μL of serum of “Healthy 1” and “Prostate cancer 4” 2-fold diluted with PBS was added to each well and allowed to stand at room temperature for 1 hour, and then the additive solution was discarded.
In Reference Example 1, 25 μL of a biotin-labeled PhoSL diluted to 0.1 μg/mL with 0.1% BSA/PBS (pH 7.4) was added to each well and allowed to stand at 4° C. for 30 minutes, and then the additive solution was discarded. In Example 1, 25 μL of a biotin-labeled PhoSL diluted to 0.1 μg/mL with 0.1% BSA/10-fold diluted PBS+glycine-NaOH (pH 9.6) was added to each well and allowed to stand at 4° C. for 30 minutes, and then the additive solution was discarded.
25 μL of a horseradish peroxidase (HRP)-labeled streptavidin solution (from Vector Laboratories, Inc., concentration: 0.4 μg/mL, in 1% BSA/PBS) was added to each well and allowed to stand at room temperature for 30 minutes, and then the additive solution was discarded.
25 μL of chromogenic substrate for HRP (product name: TMB, from Kirkegaard & Perry Laboratories, Inc.) was added to each well and allowed to stand at room temperature for 10 minutes.
25 μL of 1M phosphoric acid was added to terminate the reaction.
Absorbance (Ab) at 450 nm and 630 nm was measured using a plate reader, and a measurement (Ab450-630) was obtained.
A calibration curve was graphed by plotting signals (reaction values, Ab450-630) of the fucosylated PSA reference standard with the biotin-labeled PhoSL. A Signal (Ab450-630) of the biotin-labeled PhoSL corresponding to the fucosylated PSA concentration of 10 ng/mL was defined as 10 U/mL.
The signals of biotin-labeled PhoSL (Ab450-630) for the serum fucosylated PSA in the subject samples A were assigned to the calibration curve to calculate reaction values (unit: U/mL).
The PhoSL reaction values for the subject samples A were measured by the same operation as in Example 1. From the PhoSL reaction values, an average value and a median value were determined. Furthermore, a standard cutoff value (89.7 U/mL) was used to determine a detection rate (positive rate) of the prostate cancer patients, and a false detection rate (false positive rate) of the healthy persons.
Comparative Example 2 in Table 9 indicates results of detecting the serum fucosylated PSA using AAL (AAL reaction values) in the subject samples A. Specifically, in Reference Example 1, AAL reaction values were measured in the same manner as in Reference Example 1 except that the biotin-labeled PhoSL was replaced with a biotin-labeled AAL. A standard cut-off value for the AAL reaction values was 894.8 U/mL. As in Example 2, an average value, a median value, a positive rate and a false positive rate were determined from the AAL reaction values.

[1] = subject samples A, 7 healthy persons, pH 7.4
[2] = subject samples A, 9 patients, pH 7.4

B1: AAL: Aleuria aurantia lectin, has affinity for fucose α1→6 but is not specific; from J-OIL MILLS, Inc. (protein)
chain: PTEFLYTSKIAAISWAATGGRQQRVYFQDLNGKIREAQRGGDNPWTGGSSQNVIGEAKLFSPLAAVTWKSAQGIQIRVYCVNKDNILSEFVYDGSKWITGQLGSVGVKVGSNSKLAALQWGGSESAPPNIRVYYQKSNGSGSSIHEYVWSGKWTAGASFGSTVPGTGIGATAIGPGRLRIYYQATDNKIREHCWDSNSWYVGGFSASASAGVSIAAISWGSTPNIRVYWQKGREELYEAAYGGSWNTPGQIKDASRPTPSLPDTFIAANSSGNIDISVFFQASGVSLQQWQWISGKGWSIGAVVPTGTPAGW
Serum of Healthy 1, pH in lectin reaction 7.4
  lectin reaction value B of Healthy 1: 1099.6 U/mL
Serum of Healthy 2, pH in lectin reaction 7.4
  lectin reaction value of Healthy 2: 854.6 U/mL
Serum of Healthy 3, pH in lectin reaction 7.4
  lectin reaction value of Healthy 3: 1062.7 U/mL
Serum of Healthy 4, pH in lectin reaction 7.4
  lectin reaction value of Healthy 4: 115.0 U/mL
Serum of Healthy 5, pH in lectin reaction 7.4
  lectin reaction value of Healthy 5: 32.3 U/mL
Serum of Healthy 6, pH in lectin reaction 7.4
  lectin reaction value of Healthy 6: 1193.1 U/mL
Serum of Healthy 7, pH in lectin reaction 7.4
  lectin reaction value of Healthy 7: 1028.8 U/mL
Serum of Prostate cancer 1, GS 4 (2 + 2), pH in lectin reaction 7.4
  lectin reaction value of Prostate cancer 1: 831.2 U/mL
Serum of Prostate cancer 2, GS 5 (2 + 3), pH in lectin reaction 7.4
  lectin reaction value of Prostate cancer 2: 1032.3 U/mL
Serum of Prostate cancer 3, GS 6 (3 + 3), pH in lectin reaction 7.4
  lectin reaction value of Prostate cancer 3: 1152.7 U/mL
Serum of Prostate cancer 4, GS 6 (3 + 3), pH in lectin reaction 7.4
  lectin reaction value A of Prostate cancer 4: 926.5 U/mL
Serum of Prostate cancer 5, GS 7 (3 + 4), pH in lectin reaction 7.4
  lectin reaction value of Prostate cancer 5: 1025.0 U/mL
Serum of Prostate cancer 6, GS 7 (3 + 4), pH in lectin reaction 7.4
  lectin reaction value of Prostate cancer 6: 961.5 U/mL
Serum of Prostate cancer 7, GS 8 (3 + 5), pH in lectin reaction 7.4
  lectin reaction value of Prostate cancer 7: 1211.9 U/mL
Serum of Prostate cancer 8, GS 8 (4 + 4), pH in lectin reaction 7.4
  lectin reaction value of Prostate cancer 8: 1010.0 U/mL
Serum of Prostate cancer 9, GS 8 (4 + 4), pH in lectin reaction 7.4
  lectin reaction value of Prostate cancer 9: 988.1 U/mL
[1]
  reaction value, Healthy person group, Average value: 769.4 U/mL
  reaction value, Healthy person group, Median value: 1028.8 U/mL
[2]
  reaction value, Prostate cancer patient group, Average value: 1015.5 U/mL
  reaction value, Prostate cancer patient group, Median value: 1010.0 U/mL
Subject samples A, n 2, pH 7.4
  reaction value, GS6, Mean value: 1039.6 U/mL
  reaction value, GS6, Median value: 1039.6 U/mL
  reaction value, GS7, Mean value: 993.3 U/mL
  reaction value, GS7, Median value: 993.3 U/mL
  reaction value, Negative (GS5 or less), Mean value: 931.8 U/mL
  reaction value, Negative (GS5 or less), Median value: 931.8 U/mL
Subject samples A, n 3, pH 7.4
  reaction value, GS8 or more, Mean value: 1070.0 U/mL
  reaction value, GS8 or more, Median value: 1010.0 U/mL
